Assay results as given in patent US20250340659A1 (PETMEDIX, published 2025).

T1: canine OX40L, full length membrane form, expressed on HEK293 cells (canine)
T1 construct: also called OX40L expressing HEK; HEK OX40L cells
T1 chain: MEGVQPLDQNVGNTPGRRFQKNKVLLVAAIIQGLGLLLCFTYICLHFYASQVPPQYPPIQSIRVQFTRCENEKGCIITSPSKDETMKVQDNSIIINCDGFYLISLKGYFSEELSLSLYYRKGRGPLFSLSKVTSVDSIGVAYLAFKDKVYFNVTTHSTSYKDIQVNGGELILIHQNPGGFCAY

T2: recombinant canine OX40L ECD-TNCc-HIS protein (canine)
T2 construct: also called Trimeric OX40L probe (HIS tag); trimeric canine OX40L
T2 chain: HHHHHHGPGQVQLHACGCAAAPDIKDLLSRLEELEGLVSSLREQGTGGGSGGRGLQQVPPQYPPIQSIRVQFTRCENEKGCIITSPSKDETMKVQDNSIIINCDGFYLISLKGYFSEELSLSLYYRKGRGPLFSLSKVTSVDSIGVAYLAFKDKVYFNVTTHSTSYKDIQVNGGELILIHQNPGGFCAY


Key:
[1] = molecular target: T1, canine OX40L, full length membrane …; assay: flow cytometry
In short: (§1)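 CHO supernatants at 1, 5 or 10 μg/ml in PBS/3% FBS incubated 30′ on ice with cells surface-expressing canine OX40L. Bound antibody detected with fluorescent anti-canine Fc secondary (1:1000, 30 min, dark) and measured by flow cytometry, with parental WT HEK signal subtracted where stated.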

[2] = molecular target: T2, recombinant canine OX40L ECD-TNCc-HIS …; assay: SPR KD1, bivalent analyte model
In short: (§2)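 Purified antigen amine-coupled at low density to a CM5 chip; candidate antibodies injected as analyte over a concentration range. Kinetic curves fitted with a bivalent analyte model to give functional affinity and dissociation rates.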

[3] = molecular target: T1, canine OX40L, full length membrane …; assay: flow cytometry, OX40L HEK minus WT HEK
In short: as §1

[4] = molecular target: T1, canine OX40L, full length membrane …; assay: cell-based or functional assay
[5] = molecular target: T2, recombinant canine OX40L ECD-TNCc-HIS …; assay: SPR Koff (kd2)
In short: as §2

[6] = molecular target: T2, recombinant canine OX40L ECD-TNCc-HIS …; assay: SPR Koff (kd1)
In short: as §2

GEO mean OX40L expressing HEK [1] | Kd [2] [nM] | GEO mean difference [3] | % Signal Inhibition Average [4] [%] | % Signal Inhibition Rep1 [4] [%] | % Signal Inhibition Rep2 [4] [%] | % Signal Inhibition Rep3 [4] [%] | koff [5] [s⁻¹] | koff [6] [s⁻¹] | Binder
3.18e+06 | 0.271 | 3.15e+06 | 74.4 | 68.3 | 83 | 72 | 5.21 | 9.05e-05 | PMX063 (antibody, V domains shown, also called PMX63) VH: EVQLVESGGDLVRPGGSLRLSCVASGFTFNNYHMSWVRQAPGKGLQWVAFINSGGSGTTFADVVRGRFTISRDYAKNALYLQMNSLRAEDTAVYYCASGSIWTHFDYWGQGTLVTVSS VL: SFVLTQLPSVSVTLRQTARITCGGDIIGSKNVYWYQQRLGQAPVLIIYRDNNRPTGIPERFSGASSGNTATLTISGALAEDEADYYCQVWDNSNKAMFGGGTHLTVL
1.47e+06 | 10.4 | 1.44e+06 | 75.9 | 79.9 | 81.7 | 66.2 | 0.000554 | 0.00484 | PMX045 (antibody, V domains shown, also called PMX45) VH: EVQLVESGGDLVKPGGSLRLSCVASGFTFSSYHMTWVRQAPGKGLQWVAYITSGGITTSYADAVKGRFTISRDNAKNTLYLQMSSLRAEDTAMYYCARDLVLLLGGADYWGQGTLVTVSS VL: SYELTQPPSVNVTLRETAHITCGGDSIGRKYVQWIQQNPGQAPVVIIYKDSNRPTGIPERFSGANSGNTATLTISGALAEDEADYYCQVGDSGTKAVFGGGTHLTVL
3.45e+06 | 145 | 3.42e+06 | 91.1 | 88.9 | 94.8 | 89.7 | 0.000921 | 0.0352 | PMX064 (antibody, V domains shown, also called PMX64) VH: EVQLVESGGDLVKPGGSLRLSCVASGFTFSSYHMSWVRQAPGKGLQWVAYITSGGITTSYADAVKGRFTISRDNAKNTLYLQMNSLRAEDTAVYYCASDLVLILGGADYWGQGTLVTVSS VL: SYELTQPPSVNVTLSETAHITCGGDSIGRKYVQWIQQNPGQAPVVIIYKDSNRPTGIPERFSGANSGNTATLTISGALAEDEADYYCQVGDSGTKAVFGGGTHLTVL
738000 | 90.6 | 730000 | 32.7 | 19.9 | 37.4 | 40.9 | 0.000294 | 0.032 | PMX155 (antibody, V domains shown) VH: ELHLVESGGDLVKPAGSLRLSCVASGFTFSSFRMSWVRQSPGKGLQFVAGINSDGYNTQYRDDVKGRFTISRDNTEKTLYLQMNNLRVEDTAMYYCVKDQGSWGGNFDFWGQGTLVTVSS VL: SYGLTQPPSVNVTLRETAHITCGGDSIGSKYVQWIQQIPGQAPVVIIYKDRNRPTGIPERFSGANSGNTATLTISGALAEDEADYYCQVGDSGTSVFGGGTHLTVL
680000 | 1980 | 672000 | 35.1 | 21.6 | 34.5 | 49.1 | 0.000238 | 0.102 | PMX156 (antibody, V domains shown) VH: ELQLVESGGDLVKPAGSLRLSCVASGFTFSNFRMSWVRQAPGKGLQFVAGINSDGYSTQYRDDVKGRFTISRDNTEKTLYLQMNNLRVEDTAMYYCVKDQGSWGGNFDYWGQGTLVTVSS VL: SYGLTQPPSVNVTLRETAHITCGGDSIGSKYVQWIQQIPGQAPVVIIYKDRNRPTGIPERFSGANSGNTATLTISGALAEDEADYYCQVGDSGTSVFGGGTHLTVL
789000 | 15.6 | 781000 | 63.7 | 62.6 | 77.2 | 51.5 | 6.94 | 0.00384 | PMX154 (antibody, V domains shown) VH: EVQLVESGGDLVKPEGSLRLSCVVSGFTFSGFDMSWVRQAPGKGLQWVAYISTDGRSTGYTDAVKGRFTISRDNVKNTLYLQMNSLRTEDTAVYYCAKETRHWGFDYWGQGTLVIVSS VL: SYVLTQLSSVSVSLRQTAHITCGGDSIGRKNVYWHQQKLGRAPILIIYDDSSRPSGIPERFSGANSGNTATLTISGALAEDEAAYYCQVWDSSTSVFGGGTHLTVL
3.1e+06 | 70.9 | 3.07e+06 | 66.1 | 58.9 | 68.4 | 71.1 | 0.000925 | 0.00933 | PMX060 (antibody, V domains shown, also called PMX60) VH: EVQLVESGGDLMKPGGSLRLSCVASGFTFSSFPMSWVRQAPGKGLQWVAYIHSGGSSTSYADAVKGRFTISRDNAKNTLYLQMNSLRAEDTAIYYCARTFPTVAADNWFYYWGQGTLVTVSS VL: SYVLTQLPSKNVTLKQAAHITCGGDNIGSKSVHWYQQKLGQAPVLIIYYDSSRPTGIPERFSGANSGNTATLTISGALAEDEADYYCQVWDSSAKWVFGEGTQLTVL
3.29e+06 | 89.6 | 3.26e+06 | 56.1 | 51 | 61.6 | 55.7 | 0.000729 | 0.00746 | PMX061 (antibody, V domains shown, also called PMX61) VH: EVQLVESGGDLVKPGGSLRLSCVASGFTFSSFPMSWVRQAPGKGLQWVAYINSGGSSTSYADVVKGRFTISRDNAKNTLYLQMNSLRADDTAVYYCARTFPTVATDNWFYYWGQGTLVTVSS VL: SYVLTQLPSKNVTLKQAAHITCGGDNIGSKSVHWYQQKLGQAPVLIIYYDSSRPTGIPERFSGANSGNTATLTISGALAEDEADYYCQVWDSSAKWVFGEGTQLTVL
3.55e+06 | 107 | 3.52e+06 | 72.6 | 62.7 | 85.3 | 69.9 | 0.412 | 0.0125 | PMX065 (antibody, V domains shown, also called PMX65) VH: EVQLVESGGDLVKPGGSLRLSCVASGFTFNNYEMYWVRQAPGKGLEWVARIYESGSTTFSAEAVTGRFTISRDNAKNMVYLQMNSLRAEDTAVYYCASASSSSWRFDYWGQGTLVTVSS VL: SYVLTQLPSVSVTLGQTARITCGGDSIGRKNVCWFQQRLGQAPELIIYDDRSRPSGIPERFSGANSGNTATLTISGALAEDEADYYCQVWDSSTGVFGGGTHLTVL
1.42e+06 | 114 | 1.39e+06 | 65.6 | 70.6 | 83.9 | 42.3 | 0.000924 | 0.0283 | PMX030 (antibody, also called PMX30) heavy: EVQLVESGGDLVKPGGSLRLSCVASGFTFSNYHMNWVRQAPGKGLQWVAYVVSGGSTTSYADAVKGRFTISRDNAKNTLYLQMNSLRAEDTAVYYCAKGTSSWGVPMDYWGHGTSLFVSSASTTAPSVFPLAPSCGSTSGSTVALACLVSGYFPEPVTVSWNSGSLTSGVHTFPSVLQSSGLYSLSSMVTVPSSRWPSETFTCNVAHPASKTKVDKPVPKRENGRVPRPPDCPKCPAPESLGGPSVFIFPPKPKDTLLIARTPEVTCVVVDLGREDPEVQISWFVDGKQMQTAKTQPREEQFNGTYRVVSVLPIGHQDWLKGKQFTCKVNHIGLPSPIERTISKARGQAHQPSVYVLPPSREELSKNTVSLTCLIKDFFPPDIDVEWQSNGQQEPESKYRTTPPQLDEDGSYFLYSKLSVDKSRWQRGDTFICAVMHEALHNHYTQKSLSHSPGK VL: SYVLTQLPSVSVTLRQTARITCGGDSIRSKNVYWYQQKLGQAPVLIIYDDSSRPSGIPERFSGANSGNTATLTISGALAEDEADYYCQVWDSSTSVFGGGTHLTVL
1.09e+06 | 51.6 | 1.06e+06 | 69.4 | 75.8 | 76.2 | 56 | 0.000779 | 0.0294 | PMX029 (antibody, V domains shown, also called PMX29) VH: EVQLVESGGDLVKPGGSLRLSCVASGFTFSSYHMNWVRQAPGKGLQWVAYINTGGSRTSYADAVKGRFTISRDNAKNTLYLQMNSLRAEDTAVYYCANNYWDNFDSWGQGTLVTVSS VL: SYELTQPPSVNVTLRETAHITCGGDSIGSKYVQWIQQNPGQAPVVIIYKDTNRPTGIPERFSGANSGNTATLTISGALAEDEADYYCQVGDSGTKASVFGGGTHLTVL
